Experimental data published in patent publication US20050282743A1, “Molecular interactions in cells” (Arbor Vita Corporation, priority 2001, published 2005).
Ends that are not written are not given here. * marks the point of attachment. Biotin = O=C1N[C@H]2[C@H](CS[C@H]2CCCCC(=O)*)N1

Assays:
Assay in all cases: G' assay (10 uM PL peptide), results of TABLE 7 and TABLE 12
Assay type in all cases: binding
[1] = biological target: T1, PDZ protein (GST-PDZ fusion) (Homo sapiens, UniProt Q5TCQ9)
T1 construct: made in house; host or cells: E. coli (DH5alpha, BL21 or JM109)
T1 sequence (Q5TCQ9 1-1481): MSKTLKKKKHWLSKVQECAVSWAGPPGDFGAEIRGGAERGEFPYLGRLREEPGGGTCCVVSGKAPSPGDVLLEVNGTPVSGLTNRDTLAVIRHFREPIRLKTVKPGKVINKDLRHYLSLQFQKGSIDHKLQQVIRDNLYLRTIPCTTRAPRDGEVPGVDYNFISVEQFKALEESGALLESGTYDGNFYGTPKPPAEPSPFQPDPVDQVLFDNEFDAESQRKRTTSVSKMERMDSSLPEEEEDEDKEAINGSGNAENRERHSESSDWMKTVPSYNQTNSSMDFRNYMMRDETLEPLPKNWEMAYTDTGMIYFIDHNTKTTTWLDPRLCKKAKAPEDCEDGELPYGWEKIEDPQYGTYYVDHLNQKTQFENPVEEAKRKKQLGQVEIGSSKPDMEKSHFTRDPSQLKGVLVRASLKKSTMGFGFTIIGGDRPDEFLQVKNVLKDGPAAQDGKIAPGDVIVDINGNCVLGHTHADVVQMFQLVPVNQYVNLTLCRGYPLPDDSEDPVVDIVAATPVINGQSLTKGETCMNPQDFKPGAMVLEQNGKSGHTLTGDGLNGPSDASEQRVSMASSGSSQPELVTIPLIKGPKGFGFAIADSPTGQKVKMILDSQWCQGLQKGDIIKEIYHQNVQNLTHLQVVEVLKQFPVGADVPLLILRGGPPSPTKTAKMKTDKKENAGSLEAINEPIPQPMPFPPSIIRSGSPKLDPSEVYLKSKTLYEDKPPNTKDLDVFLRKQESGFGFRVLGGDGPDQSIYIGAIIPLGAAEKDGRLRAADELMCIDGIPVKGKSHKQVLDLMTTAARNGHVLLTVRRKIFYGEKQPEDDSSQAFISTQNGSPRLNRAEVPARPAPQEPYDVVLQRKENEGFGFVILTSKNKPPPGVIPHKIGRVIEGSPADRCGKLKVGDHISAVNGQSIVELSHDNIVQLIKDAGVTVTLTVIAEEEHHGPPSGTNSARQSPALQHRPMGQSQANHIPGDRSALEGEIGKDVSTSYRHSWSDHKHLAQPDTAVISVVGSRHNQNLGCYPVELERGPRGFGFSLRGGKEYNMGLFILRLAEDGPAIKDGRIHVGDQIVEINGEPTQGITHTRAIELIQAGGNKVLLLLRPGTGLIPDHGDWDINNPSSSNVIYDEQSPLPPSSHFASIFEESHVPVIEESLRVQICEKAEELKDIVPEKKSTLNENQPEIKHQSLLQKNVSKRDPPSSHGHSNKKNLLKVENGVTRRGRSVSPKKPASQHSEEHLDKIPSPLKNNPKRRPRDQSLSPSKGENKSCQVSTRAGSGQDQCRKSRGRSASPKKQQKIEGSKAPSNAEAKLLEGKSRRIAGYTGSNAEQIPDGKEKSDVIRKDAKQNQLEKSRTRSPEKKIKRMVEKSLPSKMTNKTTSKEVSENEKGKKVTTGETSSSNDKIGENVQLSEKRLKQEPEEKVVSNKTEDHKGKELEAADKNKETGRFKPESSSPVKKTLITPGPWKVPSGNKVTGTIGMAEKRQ
Text: (§1) Each page of TABLE 7 and 12 includes seven columns. The columns in each table are numbered from left to right such that the left-most column in each table is column 1 and the right-most column in each table is column 7. Thus, the first column in each table is labeled “AVC ID”; this column simply lists an internal reference number used to refer to the carboxyl-terminal amino acids of the PL proteins listed in the second column. […] All PL peptides were biotinylated at the amino-terminus and the sequences of these PL peptides are presented in TABLE 8 (see end of specification).
(§2) This column provides the gene name for the PDZ portion of the GST-PDZ fusion that interacts with the PDZ-ligand to the left. For PDZ domain-containing proteins with multiple domains, the domain number is listed to the right of the PDZ (i.e., in column 5 labeled “PDZ Domain”), and indicates the PDZ domain number when numbered from the amino-terminus to the carboxy-terminus.
(§3) The third column labeled “Peptide Optimal Concentration” in the tables is a number reflective of the binding interaction between the PL protein and PDZ protein. […] The column labeled “Protein Optimal Concentration” refers to the protein concentration used to assay PL interaction (in ug/ml); a ‘0’ is indicative of 5 ug/ml protein concentration; any other value represents the concentration (in ug/ml) used to determine the dissociation constant for a given interaction.
(§4) Finally, the seventh column labeled “Classification” is another measure of the level of binding. In particular, it provides an absorbance value at 450 nm which indicates the amount of PL peptide bound to the PDZ protein. The following numerical values have the following meanings: ‘1’—A450 nm 0-1; ‘2’—A450 nm 1-2; ‘3’—A450 nm 2-3; ‘4’—A450 nm 3-4; ‘5’—A450 nm of 4 more than 2× repeated; ‘0’—A450 nm 0, i.e., not found to interact. Thus, higher numbers indicate stronger interactions.
(§5) For convenience, the assay conditions described in this section are referred to as the “G′ assay” and the “G″ assay,” with the specific conditions described in the preceding section on G assays being referred to as the “G^0 assay.” The “G′ assay” is identical to the “G^0 assay” except at step (2) the peptide concentration is 10 uM instead of 20 uM.

[2] = biological target: T2, PDZ protein (GST-PDZ fusion) (Homo sapiens, UniProt Q12959); details: PDZ DLG1, PDZ Domain 1, 2
T2 construct: made in house; host or cells: E. coli (DH5alpha, BL21 or JM109)
Text: as §1, §2, §3, §4, §5

[3] = biological target: T3, PDZ protein (GST-PDZ fusion) (Homo sapiens, UniProt Q12923)
T3 construct: made in house; host or cells: E. coli (DH5alpha, BL21 or JM109)
Text: as §1, §2, §3, §4, §5

[4] = biological target: T4, PDZ protein (GST-PDZ fusion) (Homo sapiens, UniProt Q14160); details: PDZ KIAA0147, PDZ Domain 1
T4 construct: made in house; host or cells: E. coli (DH5alpha, BL21 or JM109)
Text: as §1, §2, §3, §4, §5

[5] = biological target: T5, PDZ protein (GST-PDZ fusion) (Homo sapiens, UniProt Q02410)
T5 construct: made in house; host or cells: E. coli (DH5alpha, BL21 or JM109)
T5 sequence (Q02410 1-837): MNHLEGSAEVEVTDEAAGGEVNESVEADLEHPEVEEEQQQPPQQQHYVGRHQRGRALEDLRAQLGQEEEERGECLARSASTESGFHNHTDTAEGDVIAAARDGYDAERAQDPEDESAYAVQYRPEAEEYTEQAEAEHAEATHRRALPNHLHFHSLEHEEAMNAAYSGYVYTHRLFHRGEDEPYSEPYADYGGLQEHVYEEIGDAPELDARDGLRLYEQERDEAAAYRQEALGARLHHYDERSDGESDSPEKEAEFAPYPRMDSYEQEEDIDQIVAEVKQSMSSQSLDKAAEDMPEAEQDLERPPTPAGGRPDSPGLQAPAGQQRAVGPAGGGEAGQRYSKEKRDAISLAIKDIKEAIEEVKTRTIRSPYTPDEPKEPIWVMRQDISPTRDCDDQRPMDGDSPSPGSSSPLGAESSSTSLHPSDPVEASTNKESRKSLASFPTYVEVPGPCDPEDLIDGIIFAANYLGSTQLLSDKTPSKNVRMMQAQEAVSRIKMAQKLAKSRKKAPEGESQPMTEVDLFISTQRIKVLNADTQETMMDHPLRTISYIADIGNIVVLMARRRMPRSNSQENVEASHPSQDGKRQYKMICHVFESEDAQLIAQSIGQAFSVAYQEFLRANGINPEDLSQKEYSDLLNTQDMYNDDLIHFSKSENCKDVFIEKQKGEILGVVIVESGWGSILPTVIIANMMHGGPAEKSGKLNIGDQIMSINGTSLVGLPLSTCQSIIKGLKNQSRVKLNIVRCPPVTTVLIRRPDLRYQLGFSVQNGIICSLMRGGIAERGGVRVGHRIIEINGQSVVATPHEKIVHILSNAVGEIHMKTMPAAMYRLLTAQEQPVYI
Text: as §1, §2, §3, §4, §5

[6] = biological target: T6, PDZ protein (GST-PDZ fusion) (Homo sapiens, UniProt Q8NI35); details: PDZ INADL, PDZ Domain 8
T6 construct: made in house; host or cells: E. coli (DH5alpha, BL21 or JM109)
Text: as §1, §2, §3, §4, §5

[7] = biological target: T7, PDZ protein (GST-PDZ fusion) (Homo sapiens, UniProt Q6P0Q8)
T7 construct: made in house; host or cells: E. coli (DH5alpha, BL21 or JM109)
Text: as §1, §2, §3, §4, §5

[8] = biological target: T8, PDZ protein (GST-PDZ fusion) (Homo sapiens, UniProt O75970)
T8 construct: made in house; host or cells: E. coli (DH5alpha, BL21 or JM109)
Text: as §1, §2, §3, §4, §5

[9] = test system: PDZ protein (GST-PDZ fusion)
Text: as §1, §2, §3, §4, §5

T7 sequence (Q6P0Q8 whole entry, the tested form may be a part): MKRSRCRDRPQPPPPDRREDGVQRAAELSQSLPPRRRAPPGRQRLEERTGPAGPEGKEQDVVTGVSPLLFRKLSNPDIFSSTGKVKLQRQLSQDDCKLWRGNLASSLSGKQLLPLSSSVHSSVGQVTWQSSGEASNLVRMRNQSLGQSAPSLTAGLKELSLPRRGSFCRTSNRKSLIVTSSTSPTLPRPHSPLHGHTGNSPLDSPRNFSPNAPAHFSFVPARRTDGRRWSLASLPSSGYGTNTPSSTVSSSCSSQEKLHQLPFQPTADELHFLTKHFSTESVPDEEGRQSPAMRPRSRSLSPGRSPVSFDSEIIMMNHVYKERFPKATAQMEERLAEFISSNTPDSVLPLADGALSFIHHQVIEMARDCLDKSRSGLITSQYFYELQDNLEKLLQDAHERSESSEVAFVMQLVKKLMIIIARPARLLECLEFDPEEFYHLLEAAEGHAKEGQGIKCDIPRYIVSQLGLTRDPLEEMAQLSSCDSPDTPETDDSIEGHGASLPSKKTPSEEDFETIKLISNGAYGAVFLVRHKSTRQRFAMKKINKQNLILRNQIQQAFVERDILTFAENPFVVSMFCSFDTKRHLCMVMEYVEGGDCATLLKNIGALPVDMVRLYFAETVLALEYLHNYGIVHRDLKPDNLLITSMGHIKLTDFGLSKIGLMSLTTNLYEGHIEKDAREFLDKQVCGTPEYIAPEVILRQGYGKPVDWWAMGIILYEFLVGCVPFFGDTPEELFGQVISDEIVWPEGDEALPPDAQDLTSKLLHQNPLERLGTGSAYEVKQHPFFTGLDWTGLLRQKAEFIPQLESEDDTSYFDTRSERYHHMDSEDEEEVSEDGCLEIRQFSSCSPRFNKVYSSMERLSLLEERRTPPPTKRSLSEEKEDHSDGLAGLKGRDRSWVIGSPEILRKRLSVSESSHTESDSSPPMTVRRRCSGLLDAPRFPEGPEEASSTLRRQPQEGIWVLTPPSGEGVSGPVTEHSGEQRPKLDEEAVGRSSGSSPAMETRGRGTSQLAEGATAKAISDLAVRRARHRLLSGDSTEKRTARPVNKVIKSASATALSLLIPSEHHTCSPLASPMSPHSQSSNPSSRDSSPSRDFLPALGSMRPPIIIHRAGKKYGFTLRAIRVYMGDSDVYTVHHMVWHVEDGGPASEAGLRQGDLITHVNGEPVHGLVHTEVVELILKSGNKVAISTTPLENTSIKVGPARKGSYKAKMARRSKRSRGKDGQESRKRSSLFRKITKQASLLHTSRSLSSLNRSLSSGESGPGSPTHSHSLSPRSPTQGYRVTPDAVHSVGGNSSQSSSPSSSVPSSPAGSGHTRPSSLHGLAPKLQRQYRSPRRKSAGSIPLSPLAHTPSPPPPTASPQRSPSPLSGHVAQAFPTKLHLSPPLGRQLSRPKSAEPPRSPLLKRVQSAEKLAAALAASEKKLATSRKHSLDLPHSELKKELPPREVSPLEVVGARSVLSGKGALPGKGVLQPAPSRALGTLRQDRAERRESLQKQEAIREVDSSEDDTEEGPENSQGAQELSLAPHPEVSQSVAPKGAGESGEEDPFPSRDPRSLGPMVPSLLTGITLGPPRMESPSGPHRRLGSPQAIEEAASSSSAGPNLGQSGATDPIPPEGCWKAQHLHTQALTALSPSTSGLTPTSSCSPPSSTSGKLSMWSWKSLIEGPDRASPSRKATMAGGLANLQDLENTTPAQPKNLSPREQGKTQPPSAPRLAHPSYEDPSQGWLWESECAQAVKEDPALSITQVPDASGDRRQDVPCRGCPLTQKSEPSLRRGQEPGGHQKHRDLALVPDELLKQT
T3 sequence (Q12923 whole entry, the tested form may be a part): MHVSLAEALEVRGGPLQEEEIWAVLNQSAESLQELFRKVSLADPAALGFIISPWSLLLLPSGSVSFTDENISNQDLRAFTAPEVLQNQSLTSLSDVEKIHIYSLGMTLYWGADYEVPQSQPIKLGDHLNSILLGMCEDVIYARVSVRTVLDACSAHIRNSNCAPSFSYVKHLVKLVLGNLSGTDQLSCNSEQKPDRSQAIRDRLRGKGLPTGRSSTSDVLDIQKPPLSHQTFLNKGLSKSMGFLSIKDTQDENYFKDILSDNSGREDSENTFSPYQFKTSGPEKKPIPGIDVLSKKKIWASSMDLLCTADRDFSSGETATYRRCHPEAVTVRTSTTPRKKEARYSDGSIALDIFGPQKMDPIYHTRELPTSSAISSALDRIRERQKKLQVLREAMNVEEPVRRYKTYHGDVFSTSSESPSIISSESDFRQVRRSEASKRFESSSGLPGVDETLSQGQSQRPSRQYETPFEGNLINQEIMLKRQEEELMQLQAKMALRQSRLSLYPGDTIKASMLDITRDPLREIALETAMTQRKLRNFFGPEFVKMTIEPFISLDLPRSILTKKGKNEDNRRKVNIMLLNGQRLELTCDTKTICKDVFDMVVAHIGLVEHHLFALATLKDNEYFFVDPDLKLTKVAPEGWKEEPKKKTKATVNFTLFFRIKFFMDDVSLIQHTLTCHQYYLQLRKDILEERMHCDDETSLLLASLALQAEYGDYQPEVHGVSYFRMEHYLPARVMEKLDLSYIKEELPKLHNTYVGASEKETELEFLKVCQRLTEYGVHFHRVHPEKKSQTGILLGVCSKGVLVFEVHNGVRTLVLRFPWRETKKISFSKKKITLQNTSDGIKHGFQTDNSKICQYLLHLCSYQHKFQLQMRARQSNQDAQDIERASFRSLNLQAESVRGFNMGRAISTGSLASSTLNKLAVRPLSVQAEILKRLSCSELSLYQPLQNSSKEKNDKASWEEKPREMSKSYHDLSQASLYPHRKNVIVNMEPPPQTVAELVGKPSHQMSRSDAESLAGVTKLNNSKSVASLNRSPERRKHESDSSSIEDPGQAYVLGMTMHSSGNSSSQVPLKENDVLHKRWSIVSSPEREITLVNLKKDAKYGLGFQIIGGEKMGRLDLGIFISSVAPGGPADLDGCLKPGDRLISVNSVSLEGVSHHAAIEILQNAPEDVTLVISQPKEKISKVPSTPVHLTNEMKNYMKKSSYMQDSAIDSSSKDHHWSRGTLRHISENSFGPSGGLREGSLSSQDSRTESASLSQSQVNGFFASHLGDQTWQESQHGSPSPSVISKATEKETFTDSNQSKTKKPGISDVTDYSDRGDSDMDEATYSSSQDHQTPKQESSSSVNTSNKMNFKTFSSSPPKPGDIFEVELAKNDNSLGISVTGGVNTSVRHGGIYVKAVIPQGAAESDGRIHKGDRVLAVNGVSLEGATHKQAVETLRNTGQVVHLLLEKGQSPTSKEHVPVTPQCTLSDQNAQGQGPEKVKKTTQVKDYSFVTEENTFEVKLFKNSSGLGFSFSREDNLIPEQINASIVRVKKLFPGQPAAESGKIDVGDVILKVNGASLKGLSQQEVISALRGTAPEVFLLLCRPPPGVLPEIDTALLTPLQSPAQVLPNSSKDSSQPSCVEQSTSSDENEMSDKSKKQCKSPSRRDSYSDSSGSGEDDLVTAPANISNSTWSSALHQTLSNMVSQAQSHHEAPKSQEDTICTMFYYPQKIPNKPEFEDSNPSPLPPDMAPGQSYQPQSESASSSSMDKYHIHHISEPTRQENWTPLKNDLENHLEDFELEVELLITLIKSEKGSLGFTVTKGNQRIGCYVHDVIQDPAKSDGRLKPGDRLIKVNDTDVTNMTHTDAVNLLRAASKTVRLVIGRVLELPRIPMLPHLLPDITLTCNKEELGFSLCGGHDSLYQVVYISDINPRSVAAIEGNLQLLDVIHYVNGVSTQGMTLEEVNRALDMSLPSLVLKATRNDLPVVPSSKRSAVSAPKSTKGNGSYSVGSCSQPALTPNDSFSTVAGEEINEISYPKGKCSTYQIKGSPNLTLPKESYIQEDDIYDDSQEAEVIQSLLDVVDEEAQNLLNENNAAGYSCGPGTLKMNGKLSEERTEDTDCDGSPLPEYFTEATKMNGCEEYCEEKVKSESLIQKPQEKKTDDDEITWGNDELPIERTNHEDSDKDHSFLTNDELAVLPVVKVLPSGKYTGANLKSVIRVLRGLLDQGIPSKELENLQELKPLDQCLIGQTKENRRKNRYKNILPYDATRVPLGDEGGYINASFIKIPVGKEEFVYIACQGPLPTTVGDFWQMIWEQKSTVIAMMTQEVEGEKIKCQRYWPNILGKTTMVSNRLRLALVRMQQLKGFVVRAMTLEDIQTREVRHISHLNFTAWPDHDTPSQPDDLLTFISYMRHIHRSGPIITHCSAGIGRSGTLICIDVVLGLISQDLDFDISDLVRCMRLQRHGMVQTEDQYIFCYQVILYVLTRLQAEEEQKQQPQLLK

GGEDFKTTNPSKQFDKNAYV (Biotin-GGEDFKTTNPSKQFDKNAYV) [claudin 10]
Classification ([1]; PDZ KIAA1634, PDZ Domain 1): 1 (A450 nm 0-1)
Classification [2]: 1 (A450 nm 0-1)

C5AR_HUMAN (Biotin-ESKSFTRSTVDTMAQKTQAV)
Classification ([3]; PDZ PTPL-1, PDZ Domain 4): 1 (A450 nm 0-1)

PYQSQGFSTEEDEDEQVSAV (Biotin-PYQSQGFSTEEDEDEQVSAV) [RA-GEF (ras/rap1A-assoc-GEF)]
Classification ([1]; PDZ KIAA1634, PDZ Domain 2): 2 (A450 nm 1-2)
Classification ([3]; PDZ PTPL-1, PDZ Domain 2): 4 (A450 nm 3-4)
Classification [4]: 1 (A450 nm 0-1)

SYPTPRPYPKPAPSSGKDYV (Biotin-SYPTPRPYPKPAPSSGKDYV) [claudin 1]
Classification ([5]; PDZ Mint 1, PDZ Domain 2): 1 (A450 nm 0-1)
Classification [6]: 1 (A450 nm 0-1)

PRLKRMQQFEDLEDEIPQFV (Biotin-PRLKRMQQFEDLEDEIPQFV) [RhoGAP 1 (PTPL1-associated)]
Classification ([3]; PDZ PTPL-1, PDZ Domain 4): 2 (A450 nm 1-2)

SPQPDSTDNDDYDDISAA (Biotin-SPQPDSTDNDDYDDISAA) [CD6]
Classification ([7]; PDZ KIAA0807(S), PDZ Domain 1): 1 (A450 nm 0-1)
Classification ([7]; PDZ KIAA807, PDZ Domain not given): 1 (A450 nm 0-1)

PVYIVQEMPPQSPANIYYKV (Biotin-PVYIVQEMPPQSPANIYYKV) [ephrin B1]
Classification ([3]; PDZ PTPL-1, PDZ Domain 4): 2 (A450 nm 1-2)
Classification ([8]; PDZ MUPP-1, PDZ Domain 3): 1 (A450 nm 0-1)
Classification ([8]; PDZ MUPP-1, PDZ Domain 7): 1 (A450 nm 0-1)
Classification ([8]; PDZ MUPP-1, PDZ Domain 9): 1 (A450 nm 0-1)
Classification ([7]; PDZ KIAA0807(S), PDZ Domain 1): 1 (A450 nm 0-1)
Classification ([7]; PDZ KIAA807 (domain not given)): 1 (A450 nm 0-1)

PGQPPKVKSEFNSYSLTGYV (Biotin-PGQPPKVKSEFNSYSLTGYV) [claudin 2]
Classification ([9]; PDZ BAI-1, PDZ Domain 3): 1 (A450 nm 0-1)
Classification ([1]; PDZ KIAA1634, PDZ Domain 1): 1 (A450 nm 0-1)
Classification ([5]; PDZ Mint 1, PDZ Domain 1, 2): 2 (A450 nm 1-2)
Classification ([7]; PDZ KIAA807): 1 (A450 nm 0-1)

RDSFHRSSFRKAETQLSQGS (Biotin-RDSFHRSSFRKAETQLSQGS) [Clasp-5]
Classification ([9]; PDZ BAI-1, PDZ Domain 2): 1 (A450 nm 0-1)
Classification ([9]; PDZ SHANK, PDZ Domain 1): 1 (A450 nm 0-1)
Classification ([7]; PDZ KIAA807): 1 (A450 nm 0-1)
Classification ([7]; PDZ KIAA0807(S), PDZ Domain 1): 1 (A450 nm 0-1)
